Earlier results as cited in patent publication US8541367B2, “Plasma anti-diabetic NUCB2 peptide (pladin) and uses thereof” (Landing Biotech, Inc., priority 2009, dated 2013).

Tested on: rats
Settings: injected directly into the brain of rats; cited from earlier work

B1: NUCB2: hypothalamus-secreted protein containing 396 amino acids (protein, UniProt P80303 25-420, looked up)
Nucleobindin-2: VPIDIDKTKVQNIHPVESAKIEPPDTGLYYDEYLKQVIDVLETDKHFREKLQKADIEEIKSGRLSKELDLVSHHVRTKLDELKRQEVGRLRMLIKAKLDSLQDIGMDHQALLKQFDHLNHLNPDKFESTDLDMLIKAATSDLEHYDKTRHEEFKKYEMMKEHERREYLKTLNEEKRKEEESKFEEMKKKHENHPKVNHPGSKDQLKEVWEETDGLDPNDFDPKTFFKLHDVNSDGFLDEQELEALFTKELEKVYDPKNEEDDMVEMEEERLRMREHVMNEVDTNKDRLVTLEEFLKATEKKEFLEPDSWETLDQQQFFTEEELKEYENIIALQENELKKKADELQKQKEELQRQHDQLEAQKLEYHQVIQQMEQKKLQQGIPPSGPAGELKFEPHI
anorexia and body weight: promotes anorexia and decreases body weight
